# In US20030158083A1, “Method of effecting angiogenesis by modulating the function of a novel endothelia phosphatase” (The Procter & Gamble Company, priority 2002, published 2003):
# Tests used:
# [1] = Phosphatase activity with fluorogenic substrate DiFMUP; format: biochemical
# Experimental: Purified, recombinant KAPh phosphatase domain (amino acids 83-464 SEQ ID NO 4) (100 μg/mL) and full-length PTEN (amino acids 1-403) (100 μg/mL) were each mixed with a fluorogenic phosphatase substrate 6,8-difluoro-4-methylumbelliferyl phosphate (DiFMUP) (Molecular Probes, Eugene, Oreg.) at a final concentration of a 100 μM in assay buffer (10 mM sodium acetate, pH 6.0, 150 mM NaCl, 5 mM DTT). Following incubation at ambient temperature for 15 or 60 min., the fluorescence intensity of the 6,8-difluoro-4-methylumbelliferone (DiFMU) product was measured in triplicate and used as an assessment of phosphatase activity. A Victor 5 microplate reader from Wallac (Turku, Finland) was used to read the fluorescence intensity from 384-well microplates (Corning Inc., Corning, N.Y.).
# [2] = Peptide phosphatase assay (BIOMOL green); format: biochemical; conditions: any peptide substrates examined; data not shown
# VEGF receptor-2 [3] = molecular target: T1, VEGF receptor-2 (Homo sapiens, UniProt P35968); test: Dephosphorylation of 32P-labeled VEGF receptor-2; format: biochemical; conditions: incubated overnight; data not shown
# T1 construct: Co-immunoprecipitation of full-length KAPh with full-length VEGF receptor-2; expressed in transfected cells
# T1 sequence (P35968 20-1356): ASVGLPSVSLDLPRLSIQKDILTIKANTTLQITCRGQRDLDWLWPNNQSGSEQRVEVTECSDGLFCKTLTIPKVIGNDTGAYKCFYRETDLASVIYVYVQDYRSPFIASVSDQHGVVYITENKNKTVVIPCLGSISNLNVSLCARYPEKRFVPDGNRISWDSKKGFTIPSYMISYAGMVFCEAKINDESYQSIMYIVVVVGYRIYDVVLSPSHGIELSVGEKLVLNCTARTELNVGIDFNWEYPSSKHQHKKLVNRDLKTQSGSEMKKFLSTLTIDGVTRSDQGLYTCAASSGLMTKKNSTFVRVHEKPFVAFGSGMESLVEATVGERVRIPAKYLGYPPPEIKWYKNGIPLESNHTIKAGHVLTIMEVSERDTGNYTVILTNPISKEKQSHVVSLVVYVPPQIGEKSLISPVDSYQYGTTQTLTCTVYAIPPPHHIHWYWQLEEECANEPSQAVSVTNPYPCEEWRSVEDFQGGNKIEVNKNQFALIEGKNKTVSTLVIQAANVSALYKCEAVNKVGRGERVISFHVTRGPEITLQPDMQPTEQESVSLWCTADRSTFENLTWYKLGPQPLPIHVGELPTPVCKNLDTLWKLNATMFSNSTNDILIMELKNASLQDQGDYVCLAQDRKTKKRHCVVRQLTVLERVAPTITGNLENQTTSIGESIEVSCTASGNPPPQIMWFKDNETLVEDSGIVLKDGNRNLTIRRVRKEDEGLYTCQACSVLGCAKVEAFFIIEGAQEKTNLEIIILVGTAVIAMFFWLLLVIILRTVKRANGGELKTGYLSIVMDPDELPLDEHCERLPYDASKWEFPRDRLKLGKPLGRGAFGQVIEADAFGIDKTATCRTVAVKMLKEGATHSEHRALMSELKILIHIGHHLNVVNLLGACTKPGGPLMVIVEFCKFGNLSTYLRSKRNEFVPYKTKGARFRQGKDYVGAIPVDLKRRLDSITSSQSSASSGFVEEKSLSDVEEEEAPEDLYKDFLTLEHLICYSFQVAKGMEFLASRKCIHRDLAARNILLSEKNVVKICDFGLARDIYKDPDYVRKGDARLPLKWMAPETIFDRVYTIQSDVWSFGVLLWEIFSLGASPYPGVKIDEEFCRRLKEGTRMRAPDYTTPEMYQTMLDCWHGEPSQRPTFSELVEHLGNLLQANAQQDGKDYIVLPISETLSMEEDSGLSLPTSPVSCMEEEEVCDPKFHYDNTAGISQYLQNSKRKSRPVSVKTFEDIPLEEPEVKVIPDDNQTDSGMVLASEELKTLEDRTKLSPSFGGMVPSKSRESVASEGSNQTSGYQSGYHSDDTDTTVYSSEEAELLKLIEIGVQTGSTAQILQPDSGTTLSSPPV
# [4] = molecular target: T2, human VEGF receptor-2 (KDR) (Homo sapiens, UniProt P35968, Y951F); test: GST pull-down association assay, VEGFR2; format: binding; conditions: GST fusion Y951F versus wild-type
# T2 construct: the intracellular domain of each receptor tyrosine kinase was generated as an in-frame GST fusion; made in house; host or cells: Sf9 insect cells (baculovirus)
# T2 sequence (P35968 790-1356 Y951F): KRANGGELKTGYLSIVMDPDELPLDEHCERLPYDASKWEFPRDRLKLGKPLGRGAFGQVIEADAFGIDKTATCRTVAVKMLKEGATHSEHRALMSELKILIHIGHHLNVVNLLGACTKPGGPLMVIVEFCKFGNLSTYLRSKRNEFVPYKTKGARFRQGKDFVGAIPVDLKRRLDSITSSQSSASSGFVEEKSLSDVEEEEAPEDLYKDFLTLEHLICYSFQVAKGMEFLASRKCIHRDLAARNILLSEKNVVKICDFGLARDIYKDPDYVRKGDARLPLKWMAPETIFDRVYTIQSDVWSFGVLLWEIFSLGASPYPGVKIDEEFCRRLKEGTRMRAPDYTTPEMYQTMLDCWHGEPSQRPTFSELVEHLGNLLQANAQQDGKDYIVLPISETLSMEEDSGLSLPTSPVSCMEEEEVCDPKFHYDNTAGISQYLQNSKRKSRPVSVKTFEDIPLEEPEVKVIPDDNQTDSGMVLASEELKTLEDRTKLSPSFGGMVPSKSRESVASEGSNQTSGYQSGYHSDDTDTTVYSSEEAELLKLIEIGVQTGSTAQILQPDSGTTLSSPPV
# human VEGF receptor-1 = molecular target: T3, human VEGF receptor-1 (Homo sapiens, UniProt P17948); test: GST pull-down association assay, VEGFR-1; format: binding; conditions: HEK 293 lysate expressing His-tagged full-length KAPh
# T3 construct: the intracellular domain of each receptor tyrosine kinase was generated as an in-frame GST fusion; made in house; host or cells: Sf9 insect cells (baculovirus)
# T3 sequence (P17948 781-1338 limits assumed): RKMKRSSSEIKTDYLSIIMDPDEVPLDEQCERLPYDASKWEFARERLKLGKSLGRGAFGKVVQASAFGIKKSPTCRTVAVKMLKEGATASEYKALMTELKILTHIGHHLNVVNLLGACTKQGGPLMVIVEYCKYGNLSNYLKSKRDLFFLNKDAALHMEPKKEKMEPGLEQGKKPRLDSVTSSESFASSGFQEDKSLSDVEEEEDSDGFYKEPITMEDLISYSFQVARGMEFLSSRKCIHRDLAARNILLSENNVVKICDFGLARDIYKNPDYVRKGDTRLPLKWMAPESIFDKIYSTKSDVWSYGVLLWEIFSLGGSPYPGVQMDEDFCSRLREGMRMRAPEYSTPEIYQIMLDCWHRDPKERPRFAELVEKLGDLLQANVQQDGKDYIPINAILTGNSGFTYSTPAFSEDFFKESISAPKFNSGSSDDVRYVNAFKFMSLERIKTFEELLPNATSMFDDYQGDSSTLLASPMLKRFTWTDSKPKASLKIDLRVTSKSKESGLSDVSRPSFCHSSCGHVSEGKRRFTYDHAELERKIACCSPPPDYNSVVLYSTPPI
# Description: (§1) Recombinant VEGFR-1 kinase (wild-type and K862R mutant), VEGFR2 kinase (wild-type and K870R mutant), Tie1 kinase (wild-type and K871R mutant), and Tie2 kinase (wild-type and K856R mutant) were expressed as glutathione S-transferase (GST) fusion proteins in Sf9 cells using a baculovirus expression system. Briefly, the intracellular domain of each receptor tyrosine kinase was generated as an in-frame GST fusion using the pAcGHLT baculovirus transfer vector (Pharmingen, San Diego, Calif.). Each baculovirus transfer vector construct was cotransfected with BaculoGold (Pharmingen, San Diego, Calif.) linearized AcNPV baculovirus DNA into Sf9 cells for the generation of recombinant baculoviruses. Five days post-transfection, recombinant baculoviruses were harvested and amplified by re-infection of Sf9 cells. Each amplified baculovirus was then used to infect Sf9 cells for the expression of the recombinant kinases. […]
# (§2) The immobilized, autophosphorylated kinases were then incubated with HEK 293 cell lysates which overexpressed either the KAPh SH2 domain or KAPh full-length protein. […] KAPh protein that associated with the recombinant kinases was analyzed by Western blot using a chemiluminescence detection system (Amersham Pharmacia, Piscataway, N.J.).
# Tie 1 = test: GST pull-down association assay, Tie 1; format: binding, human; conditions: wild-type and kinase-inactive mutant
# Description: as §1, §2
# Tie 2 = test: GST pull-down association assay, Tie 2; format: binding, human; conditions: wild-type and kinase-inactive mutant
# Description: as §1, §2
# VEGF receptor-2 [5] = molecular target: T1, VEGF receptor-2; test: Co-immunoprecipitation with VEGF receptor-2 in HEK 293 cells; format: cell-based; conditions: HEK 293 VEGFR2 stable cells, 1 nM VEGF 5 min or untreated, anti-VEGFR2 IP
# Experimental: Human umbilical vein endothelial cells (HUVEC) obtained from Clonetics (Walkersville, Md.) were cultured in endothelial growth medium (Clonetics) and were used up to passage 3. HEK 293 cells obtained from the American Type Culture Collection (Manasses, Va.) were cultured in cell growth medium (Dulbecco's modified Eagle's medium supplemented with 10% fetal bovine serum, 1% L-glutamine, 1% nonessential amino acids, and 1% antimycotics). For stable expression, hVEGFR2 was subcloned into pLNCX (Clontech, Palo Alto, Calif.), […] transfected into HEK 293 cells, and selected in the presence of Geneticin. The HEK 293 VEGFR2 clonal cell line was transiently transfected with either the SH2 domain or full-length KAPh in the mammalian expression vector pcDNA4/HisMax (Invitrogen, Carlsbad, Calif.). All constructs were transfected using LipofectAMINE PLUS (Life Technologies, Rockville, Md.) in serum-free DMEM according to the manufacturer's instructions.
# HEK 293 cells that stably expressed the VEGF receptor-2 were transiently transfected to express the KAPh SH2 domain or full-length KAPh were treated with 1 nM VEGF or left untreated for 5 min. The cells were lysed in 1% triton lysis buffer with protease inhibitors. Insoluble debris was removed from the lysates by centrifugation at 14,000×g for 10 min at 4° C. […]
molecule,measurement,setting,value
"KAPh: novel human KDR Associated Phosphatase protein, full-length sequence SEQ ID NOS 1 and 2 (protein, listed as Homo sapiens) MKPRKAEPHSFREKVFRKKPPVCAVCKVTIDGTGVSCRVCKVATHRKCEAKVTSACQALPPVELRRNTAPVRRIEHLGSTKSLNHSKQRSTLPRSFSLDPLMERRWDLDLTYVTERILAAAFPARPDEQRHRGHLRELAHVLQSKHRDKYLLFNLSEKRHDLTRLNPKVQDFGWPELHAPPLDKLCSICKAMETWLSADPQHVVVLYCKGNKGKLGVIVSAYMHYSKISAGADQALATLTMRKFCEDKVATELQPSQRRYISYFSGLLSGSIRMNSSPLFLHYVLIPMLPAFEPGTGFQPFLKIYQSMQLVYTSGVYHIAGPGPQQLCISLEPALLLKGDVMVTCYHKGGRGTDRTLVFRVQFHTCTIHGPQLTFPKDQLDEAWTDERFPFQASVEFVFSSSPEKIKGSTPRNDPSVSVDYNTTEPAVRWDSYENFNQHHEDSVDGSLTHTRGPLDGSPYAQVQRPPRQTPPAPSPEPPPPPMLSVSSDSGHSSTLTTEPAAESPGRPPPTAAERQELDRLLGGCGVASGGRGAGRETAILDDEEQPTVGGGPHLGVYPGHRPGLSRHCSCRQGYREPCGVPNGGYYRPEGTLERRRLAYGGYEGSPQGYAEASMEKRRLCRSLSEGLYPYPPEMGKPATGDFGYRAPGYREVVILEDPGLPALYPCPACEEKLALPTAALYGLRLEREAGEGWASEAGKPLLHPVRPGHPLPLLLPACGHHHAPMPDYSCLKPPKAGEEGHEGCSYTMCPEGRYGHPGYPALVTYSYGGAVPSYCPAYGRVPHSCGSPGEGRGYPSPGAHSPRAGSISPGSPPYPQSRKLSYEIPTEEGGDRYPLPGHLASAGPLASAESLEPVSWREGPSGHSTLPRSPRDAPCSASSELSGPSTPLHTSSPVQGKESTRRQDTRSPTSAPTQRLSPGEALPPVSQAGTGKAPELPSGSGPEPLAPSPVSPTFPPSSPSDWPQERSPGGHSDGASPRSPVPTTLPGLRHAPWQGPRGPPDSPDGSPLTPVPSQMPWLVASPEPPQSSPTPAFPLAASYDTNGLSQPPLPEKRHLPGPGQQPGPWGPEQASSPARGISHHVTFAPLLSDNVPQTPEPPTQESQSNVKFVQDTSKFWYKPHLSRDQAIALLKDKDPGAFLIRDSHSFQGAYGLALKVATPPPSAQPWKGDPVEQLVRHFLIETGPKGVKIKGCPSEPYFGSLSALVSQHSISPISLPCCLRILSKDPLEETPEAPVPTNMSTAADLLRQGAACSVLYLTSVETESLTGPQAVARASSAALSCSPRPTPAVVHFKVSAQGITLTDNQRKLFFRRHYPVNSITFSSTDPQDRRWTNPDGTTSKIFGFVAKKPGSPWENVCHLFAELDPDQPAGAIVTFITKVLLGQRK","fluorescent product (DiFMU) generated, fold over buffer control","[1]; 100 μg/mL protein, 100 μM DiFMUP, pH 6.0, ambient temperature, 60 min incubation",~10 fold
same,phosphatase activity against DiFMUP relative to PTEN,[1]; KAPh versus PTEN,1- to 2 fold
same,phosphatase activity using peptide substrates,[2],"unable to detect significant, reproducible phosphatase activity"
same,change in phosphorylation of 32P-labeled VEGF receptor-2,VEGF receptor-2 [3],unable to detect a change in phosphorylation
same,association with VEGFR2 Y951F mutant,[4],no significant change in association
same,"interaction with GST VEGFR-1, wild-type versus K862R",human VEGF receptor-1,"weak, but reproducible, autophosphorylation-dependent interaction"
same,interaction with GST Tie 1,Tie 1,no interaction
same,interaction with GST Tie 2,Tie 2,no interaction
same,co-immunoprecipitation with VEGFR2,VEGF receptor-2 [5],detected in cells stimulated with VEGF
